We go through one molecule from article doi:10.1101/2023.03.31.535174.

The target in the series is T1, AP2-I_D3 (AP2 domain 3) (Plasmodium falciparum, UniProt Q8IJW6 775-824).
T1 chain: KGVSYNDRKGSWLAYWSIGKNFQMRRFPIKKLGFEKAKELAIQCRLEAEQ
Nature of the series: EMSA.

B1: AGTGCATTA probe with distal shape mutations (series, up to six point mutations) (dsDNA)
DNA 1: GATAAAATGAGTAAAGTGCATTAAATGTTGTACACC
DNA 2: GGTGTACAACATTTAATGCACTTTACTCATTTTATC
In the case of B1, the binding result is “binds”.
